# Measurements published in patent publication US20210139542A1.
# Columns and labels:
# [1] = biological target: Hen Egg White Lysozyme (HEWL), wild type (hen) (UniProt P00698); experiment: ELISA, HEWL derivative coated, antibody in tenfold dilutions, A450
# [2] = biological target: Hen Egg White Lysozyme (HEWL), wild type (hen) (UniProt P00698); experiment: BLI, mAb on AHC biosensor, 100 nM antigen
# [3] = biological target: HEWL-Hel-1024 (hen) (UniProt P00698); experiment: BLI, mAb on AHC biosensor, 100 nM antigen
# [4] = biological target: HEWL-Full12 (hen) (UniProt P00698); experiment: BLI, mAb on AHC biosensor, 100 nM antigen, footnote e bounds the value
# [5] = biological target: HEWL-Full24 (hen) (UniProt P00698); experiment: as above
# [6] = biological target: HEWL-Hel-102 (hen) (UniProt P00698); experiment: BLI, mAb on AHC biosensor, 100 nM antigen
# [7] = biological target: HEWL-Hel-1012 (hen) (UniProt P00698); experiment: BLI, mAb on AHC biosensor, 100 nM antigen
# [8] = biological target: HEWL-Hel-104 (hen) (UniProt P00698); experiment: BLI, mAb on AHC biosensor, 100 nM antigen
# [9] = biological target: HEWL-Full12 (hen) (UniProt P00698); experiment: BLI, mAb on AHC biosensor, 100 nM antigen, footnote c bounds the value
# [10] = biological target: HEWL-Hel-1024 (hen) (UniProt P00698); experiment: as above
# [11] = biological target: HEWL-Full24 (hen) (UniProt P00698); experiment: as above
# [12] = biological target: HEWL-Hel-102 (hen) (UniProt P00698); experiment: as above
# [13] = biological target: HEWL-Hel-1012 (hen) (UniProt P00698); experiment: as above
# [14] = biological target: HEWL-Hel-104 (hen) (UniProt P00698); experiment: as above
# UniProt P00698, sequence (P00698 19-147 limits assumed): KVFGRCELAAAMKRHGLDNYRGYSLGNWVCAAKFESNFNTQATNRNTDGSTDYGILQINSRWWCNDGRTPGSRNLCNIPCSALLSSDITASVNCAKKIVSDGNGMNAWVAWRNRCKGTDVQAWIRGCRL
substance,measurement,setting,value
D11.15 (antibody),EC50 (read off the curve),[1],0.5 nM
same,Kd,[2],2.3 nM
D1.3 (antibody),Kd,[2],0.58 nM
same,Kd,[3],11 nM
same,Kd,[4],27 nM
same,Kd,[5],11 nM
HyHEL-10 (antibody),Kd,[3],0.26 nM
same,Kd,[6],0.068 nM
same,Kd,[7],0.055 nM
same,Kd,[8],0.091 nM
HyHEL-5 (antibody),Kd,[9],0.36 nM
same,Kd,[10],0.2 nM
same,Kd,[11],0.17 nM
same,Kd,[12],0.12 nM
same,Kd,[13],0.11 nM
same,Kd,[14],0.14 nM
same,Kd,[2],0.018 nM
